# Measurements: paper PMC12419796
# Biological target: H1N1 A/PR/8/1934 (Cambridge strain) neuraminidase, recombinant soluble tetramer with tetrabrachion domain (Staphylothermus marinus | influenza A virus H1N1 A/PR/8/1934 (Cambridge strain))
# Experiment: cross-linking
substance,measurement,value
"H1N1 A/PR/8/1934 (Cambridge strain) neuraminidase, recombinant soluble tetramer with tetrabrachion domain (enzyme)",stoichiometry N,4
